In this series the target is T1, IciA (rIciA, LysR family) (Mycobacterium tuberculosis H37Rv, UniProt P9WMF5 1-303).
T1 sequence: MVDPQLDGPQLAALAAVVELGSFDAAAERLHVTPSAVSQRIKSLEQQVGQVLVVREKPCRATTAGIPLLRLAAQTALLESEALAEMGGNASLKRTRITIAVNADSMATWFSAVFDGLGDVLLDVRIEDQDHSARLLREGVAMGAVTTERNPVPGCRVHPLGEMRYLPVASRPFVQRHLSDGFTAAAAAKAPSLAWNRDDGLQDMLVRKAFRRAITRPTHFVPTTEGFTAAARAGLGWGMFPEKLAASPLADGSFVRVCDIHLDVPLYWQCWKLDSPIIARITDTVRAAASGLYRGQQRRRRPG
Description: EMSA; 250-750 ng IciA, 1 ug poly(dI/dC). The settings on record: protein: recombinant; tags: His tag (pET28a NdeI/HindIII); chain copies: 4; label: 5' 32P; blunt. A general note: A gel shift assay detects complexes by their altered migration in electrophoresis.

The text below walks through data of PMC2607554, “In-Vitro Helix Opening of M. tuberculosis oriC by DnaA Occurs at Precise Location and Is Inhibited by IciA Like Protein”.

B1: A+T rich oriC oligonucleotide (Ori F1/Ori R1) (dsDNA)
DNA 1: TTCTTCCGACAACGTTCTTAAAAAAACTTCTCTA
DNA 2: TAGAGAAGTTTTTTTAAGAACGTTGTCGGAAGAA
As for B1, the binding result was “binds”.
